Earlier results as cited in patent publication US20110217294A1, “COMBINATION OF HGF INHIBITOR AND HEDGEHOG INHIBITOR TO TREAT CANCER” (priority 2009, published 2011).

Key:
[1] = target: cMet receptor (Homo sapiens, UniProt P08581); conditions: high affinity binding site
[2] = target: heparin sulfate proteoglycans (HSPG); conditions: low affinity binding site

Chain of cMet receptor (P08581 25-1390): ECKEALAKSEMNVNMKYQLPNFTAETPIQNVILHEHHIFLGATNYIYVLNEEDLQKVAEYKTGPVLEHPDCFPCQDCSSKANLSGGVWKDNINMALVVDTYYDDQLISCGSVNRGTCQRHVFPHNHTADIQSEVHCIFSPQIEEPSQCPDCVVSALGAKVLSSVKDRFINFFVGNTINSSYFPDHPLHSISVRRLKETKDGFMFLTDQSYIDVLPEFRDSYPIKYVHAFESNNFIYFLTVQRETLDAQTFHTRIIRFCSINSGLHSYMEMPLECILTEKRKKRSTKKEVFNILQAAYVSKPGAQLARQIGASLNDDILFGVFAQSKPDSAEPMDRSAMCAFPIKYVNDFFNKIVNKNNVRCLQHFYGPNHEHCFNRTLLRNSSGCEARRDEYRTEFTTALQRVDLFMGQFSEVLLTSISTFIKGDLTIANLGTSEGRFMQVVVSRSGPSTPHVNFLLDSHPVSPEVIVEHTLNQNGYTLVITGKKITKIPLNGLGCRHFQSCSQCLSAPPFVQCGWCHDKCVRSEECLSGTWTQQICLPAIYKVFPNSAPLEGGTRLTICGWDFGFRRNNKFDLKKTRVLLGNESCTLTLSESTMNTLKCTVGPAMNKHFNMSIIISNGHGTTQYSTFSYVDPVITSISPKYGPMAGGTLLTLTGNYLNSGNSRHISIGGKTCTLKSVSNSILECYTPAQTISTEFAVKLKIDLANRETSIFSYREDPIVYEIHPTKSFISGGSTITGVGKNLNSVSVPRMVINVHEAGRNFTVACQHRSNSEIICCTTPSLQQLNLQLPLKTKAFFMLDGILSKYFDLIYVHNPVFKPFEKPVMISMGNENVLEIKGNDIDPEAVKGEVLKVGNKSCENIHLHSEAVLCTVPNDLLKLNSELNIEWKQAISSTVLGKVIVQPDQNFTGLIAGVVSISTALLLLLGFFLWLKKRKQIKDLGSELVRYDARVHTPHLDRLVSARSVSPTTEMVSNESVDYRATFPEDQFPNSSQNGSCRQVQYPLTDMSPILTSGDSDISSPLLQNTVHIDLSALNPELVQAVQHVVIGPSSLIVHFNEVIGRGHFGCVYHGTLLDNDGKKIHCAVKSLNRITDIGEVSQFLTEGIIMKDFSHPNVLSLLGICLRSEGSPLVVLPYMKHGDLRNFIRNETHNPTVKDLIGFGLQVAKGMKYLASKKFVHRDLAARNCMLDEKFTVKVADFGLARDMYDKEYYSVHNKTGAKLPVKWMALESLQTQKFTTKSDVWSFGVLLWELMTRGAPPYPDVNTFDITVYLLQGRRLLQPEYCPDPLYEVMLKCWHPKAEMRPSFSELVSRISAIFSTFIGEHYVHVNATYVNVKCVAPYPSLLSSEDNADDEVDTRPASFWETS

In the case of “HGF: Human Hepatocyte Growth Factor, 102 kDa heterodimeric polypeptide”, the Kd [1] is given as 0.2 nM and the Kd [2] is given as 1 nM.
